The term EC50 (read off the curve) denotes the midpoint of the concentration-response curve. The term Kd denotes the equilibrium constant for the complex coming apart. As usually defined, the koff is the first-order rate constant of dissociation. Broadly, the kon is a measure of how fast the partners come together.

For experiment [1], the target named is T1, CD3E&D protein (UniProt P04234 22-105).
T1 construct: Purchased from Acro; also called CD3 E&D antigens; CD3E&D antigen protein
The experiment is described as follows: ELISA, coated CD3E&D protein, OD450 [panel B]. How it is done: In this example, the binding properties of the parental antibody Cross3 and the CD3 affinity-reduced antibody (the production method and the amino acid sequences of the heavy and light chains were shown in Example 1) were detected by ELISA. The CD3E&D protein was coated onto a 96-well plate by the inventors, and the strength of the signal after the addition of the antibody was used to determine the binding properties of the antibody and CD3E&D.
CD3E&D protein (purchased from Acro) was diluted to 2 μg/ml with PBS buffer, added to a 96-well plate at a volume of 100 μL/well, and placed at 4° C. overnight. The PBS buffer in the 96-well plate was aspirated, and the plate was washed 6 times with PBST (pH 7.2 PBS containing 0.1% Tween 20) buffer. Then, 200 μL/well PBS/10% BSA was added and incubated at 37° C. for 2 h for blocking. The blocking solution was removed, and the plate was washed six times with PBST. Then, the to-be-tested antibodies serially diluted with PBST/0.05% BSA, Cross3, Cross303, Cross307, Cross308, Cross309, Cross310, Cross311, Cross312, Cross313, Cross314, Cross316, Cross317, Cross318, Cross323, Cross325, Cross326, and control IgG1 (purchased from Bio-Tech) were added at 100 μL/well, and incubated at 37° C. for 1 h. The reaction system was removed, and the plate was washed 6 times with PBST. Then, the cells were incubated at 37° C. for 1 h with HRP (horseradish peroxidase)-labeled anti-human secondary antibody (Fab specific) (purchased from Sigma) serially diluted with PBST/0.05% BSA at 100 μL/well. The plate was washed six times with PBST, TMB (tetramethylbenzidine) was added at 80 μL/well and incubated at room temperature for 3 min. 4 M sulfuric acid was added at 80 μL/well to terminate the reaction. The absorbance was read at 450 nm using a microplate reader.
A general note: In an ELISA, binding on a coated surface is turned into a signal by an enzyme label.

Experiment [2] concerns the target T2, CD3 on CD8 T cells (Homo sapiens (Human), UniProt P07766 23-207).
T2 construct: Native CD3 complex on CD8 T cells among PBMCs; also called T cells (PBMCs gated with anti-human CD8 antibody)
Briefly: flow cytometry, CD8 T cells in PBMCs, MFI [panel B]. How it is done:
PBMCs were diluted with PBS to 2×10⁶/mL and added to a 1.5 ml EP tube at a volume of 100 μL/tube, 10 μL/tube of goat serum was added thereto and incubated at 4° C. for 30 min for blocking. […] 1 mL of PBS was added to the EP tube, followed by centrifugation at 3500 rpm for 5 min at 4° C. The supernatant was discarded, and the cells were washed again with PBS. After centrifugation, the supernatant was discarded, and the cells were resuspended with 100 μl/tube PBS. 1 μl/tube Alexa-647-labeled goat anti-human secondary antibody (purchased from Jackson lab) and 0.5 μl/tube PerCP-Cy5.5-labeled anti-human CD8 antibody were added and incubated at 4° C. in the dark for 30 min. The cells were washed twice with PBS, and the supernatant was discarded after centrifugation. The cells were resuspended with […] of PBS and assayed using the flow cytometry.
(A flow cytometer gives signals particle by particle.)

For experiment [3], the target named is T2, CD3 on CD8 T cells. Briefly: flow cytometry, CD8 T cells in PBMCs, binding ratio % [panel A]. A digest of the protocol:
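PBMCs at 2×10⁶/mL blocked with goat serum for 30 min at 4° C, then after washing stained for 30 min at 4° C in the dark with Alexa-647 goat anti-human secondary plus PerCP-Cy5.5 anti-CD8. Analysed by flow cytometry on CD8 T cells as binding ratio % and MFI.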

The target of experiment [4] is T1, CD3E&D protein. Briefly: SPR (Biacore 8K), antibody on CM5 chip, CD3 E&D antigen as analyte. Details: Fold change: reference not given here. On the procedure:
In a Biacore 8K (Cytiva) system, the antibody was diluted to 10 μg/mL in HBS-EP running buffer and coupled to a CM5 chip (Cytiva) at a flow rate of 10 μL/min.
(In SPR one partner is held on a chip, and binding of the other changes the refractive index at the surface.)

The target in experiment [5] is T3, PDL1 on A-375 melanoma cells, HCT-15 colorectal cancer cells and A549 lung cancer cells (UniProt Q9NZQ7 19-290, limits assumed).
T3 construct: whole, on cells
The experiment is described as follows: flow cytometry, A549 cells, MFI [panel B]. A digest of the protocol:
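Cells were blocked with goat serum at 4° C for 30 min, then incubated with serially diluted bispecific antibodies or hIgG1LALA control at 4° C for 30 min. Bound antibody was detected with Alexa-647 anti-human IgG (4° C, 30 min, dark) and read by flow cytometry.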

The target in experiment [6] is T4, PDL1 protein (UniProt Q9NZQ7 19-238).
T4 construct: Bought recombinant protein
The experiment is described as follows: ELISA, coated PDL1 protein, OD450 [panel A]. A digest of the protocol:
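PDL1 protein coated at 2 μg/ml overnight at 4 °C, blocked with PBS/10% BSA; serially diluted bispecific antibodies or control IgG1LALA bound 1 h at 37 °C. Detection with HRP anti-human Fab secondary antibody and TMB for 3 min, stopped with sulfuric acid, absorbance at 450 nm.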

Experiment [7] concerns the target T3, PDL1 on A-375 melanoma cells, HCT-15 …. The experiment is described as follows: flow cytometry, A-375 cells, binding ratio % [panel A]. On the procedure:
(§1) (2) The tumor cells were diluted to 2×10⁶/ml with PBS and added to a 1.5 ml EP tube at a volume of 100 μl/tube, and goat serum was added thereto at 10 μl/tube. The cells were blocked at 4° C. for 30 min. The serially diluted bispecific antibodies, Cross3×Trop2, Cross303×Trop2, Cross307×Trop2, Cross308×Trop2, Cross309×Trop2, Cross310×Trop2, Cross311×Trop2, Cross312×Trop2, Cross313×Trop2, Cross314×Trop2, Cross316×Trop2, Cross317×Trop2, Cross318×Trop2, Cross323×Trop2, Cross325×Trop2, Cross326×Trop2, and Cross3×PDL1, Cross303×PDL1, Cross307×PDL1, Cross308×PDL1, Cross309×PDL1, Cross310×PDL1, Cross311×PDL1, Cross312×PDL1, Cross313×PDL1, Cross314×PDL1, Cross316×PDL1, Cross317×PDL1, Cross318×PDL1, Cross323×PDL1, Cross325×PDL1, Cross326×PDL1, and control hIgG1LALA (purchased from Bio-Tech) were added and incubated at 4° C. for 30 min. 1 ml of PBS was added to the EP tube, followed by centrifugation at 3500 rpm for 5 min at 4° C. The supernatant was discarded, and the cells were washed again with PBS. After centrifugation, the supernatant was completely discarded, and the cells were resuspended with PBS at 100 μl/tube. Alexa-647-labeled goat anti-human IgG secondary antibody (purchased from Jackson lab) was added at 1 μl/tube and incubated at 4° C. in the dark for 30 min. The cells were washed twice with PBS, and the supernatant was completely discarded after centrifugation. The cells were resuspended with PBS at 200 μl/tube and assay was performed using the flow cytometry.

For experiment [8] the target is unchanged. Briefly: flow cytometry, HCT-15 cells, binding ratio % [panel A]. How it is done: as §1, with “The cells were resuspended with PBS at 200 μl/tube and assay was performed using the flow cytometry.” left out
The target of experiment [9] is T4, PDL1 protein. Briefly: ELISA, coated PDL1 protein, OD450 [panel B]. How it is done:
(3) PDL1 protein (purchased from Acro) was diluted to 2 μg/ml with PBS buffer, added to a 96-well plate at a volume of 100 μL/well, and placed at 4° C. overnight. The PBS buffer in the 96-well plate was aspirated, and the plate was washed 6 times with PBST (pH 7.2 PBS containing 0.10% Tween 20) buffer. Then, PBS/10% BSA was added at 200 μL/well and incubated at 37° C. for 2 h for blocking. The blocking solution was removed, and the plate was washed six times with PBST. Then, the to-be-tested bispecific antibodies serially diluted with PBST/0.05% BSA, Cross3×PDL1, Cross303×PDL1, Cross307×PDL1, Cross308×PDL1, Cross309×PDL1, Cross310×PDL1, Cross311×PDL1, Cross312×PDL1, Cross313×PDL1, Cross314×PDL1, Cross316×PDL1, Cross317×PDL1, Cross318×PDL1, Cross323×PDL1, Cross325×PDL1, Cross326×PDL1, and control IgG1LALA (purchased from Bio-Tech) were added at 100 μL/well, and incubated at 37° C. for 1 h. The reaction system was removed, and the plate was washed 6 times with PBST. Then, the cells were incubated at 37° C. for 1 h with HRP (horseradish peroxidase)-labeled anti-human secondary antibody (Fab specific) (purchased from Sigma) serially diluted with PBST/0.05% BSA at 100 μL/well. After the plate was washed six times with PBST, TMB (tetramethylbenzidine) was added at 80 μL/well and incubated at room temperature for 3 min. 4 M sulfuric acid was added at 80 μL/well to terminate the reaction. The absorbance was read at 450 nm using a microplate reader.

T1 sequence (chain, as listed by the source limits assumed, chain 1 of 2): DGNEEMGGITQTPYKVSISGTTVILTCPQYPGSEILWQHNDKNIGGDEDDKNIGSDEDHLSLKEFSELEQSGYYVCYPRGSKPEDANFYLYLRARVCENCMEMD
T1 sequence (P04234 22-105 limits assumed, chain 2 of 2): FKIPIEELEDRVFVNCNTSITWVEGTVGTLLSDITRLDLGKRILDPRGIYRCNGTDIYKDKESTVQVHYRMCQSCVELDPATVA
T3 sequence (Q9NZQ7 19-290 limits assumed): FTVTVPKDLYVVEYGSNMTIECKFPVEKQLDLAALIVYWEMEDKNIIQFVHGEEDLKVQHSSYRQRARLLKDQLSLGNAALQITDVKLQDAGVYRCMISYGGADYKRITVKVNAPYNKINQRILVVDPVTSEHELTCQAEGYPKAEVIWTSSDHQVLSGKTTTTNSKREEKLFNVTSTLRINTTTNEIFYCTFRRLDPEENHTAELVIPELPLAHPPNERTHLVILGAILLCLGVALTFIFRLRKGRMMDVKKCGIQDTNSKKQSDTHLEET
T4 sequence (Q9NZQ7 19-238 limits assumed): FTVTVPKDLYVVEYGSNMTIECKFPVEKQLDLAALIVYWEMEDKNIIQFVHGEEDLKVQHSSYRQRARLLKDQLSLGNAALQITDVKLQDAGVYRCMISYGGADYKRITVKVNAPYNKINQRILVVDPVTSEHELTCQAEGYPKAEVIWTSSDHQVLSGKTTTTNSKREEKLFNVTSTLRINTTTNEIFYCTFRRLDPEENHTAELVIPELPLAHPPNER
T2 sequence (P07766 23-207 limits assumed): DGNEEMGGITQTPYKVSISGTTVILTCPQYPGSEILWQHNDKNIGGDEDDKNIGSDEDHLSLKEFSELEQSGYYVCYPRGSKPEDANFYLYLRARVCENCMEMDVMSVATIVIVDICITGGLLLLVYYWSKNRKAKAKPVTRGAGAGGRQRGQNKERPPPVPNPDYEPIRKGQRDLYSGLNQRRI

B1: Cross317 (antibody, human IgG1, kappa, V domains shown)
VH: EVQLLESGGGLVQPGGSLKLSCAASGFTFNTYAMNWVRQAPGKGLEWVARIRSKYNNYATYYADSVKDRFTISRDDSKNTAYLQMNNLKTEDTAVYYCVRHGNFGNSYVSWFAGWGQGTLVTVSS
VL: ELVVTQEPSLTVSPGGTVTLTCRSSTGAVTTSNYANWVQQKPGQAPRGLIGGTNKRAPGTPARFSGSLLGGKAALTLSGVQPEDEAEYYCALWYSNLWVFGGGTKLTVLR
Regarding B1, the 50% effective concentration (EC50 (read off the curve)) with CD3E&D protein [1] is ~30 ng/mL. Also, in the experiment with CD3 on CD8 T cells [2], the 50% effective concentration (EC50 (read off the curve)) is ~2 µg/mL. For the same molecule, the half-maximal effective concentration (EC50 (read off the curve)) with CD3 on CD8 T cells [3] was ~0.5 µg/mL. In the experiment with CD3E&D protein [4], the Fold change was found to be 16.2, binding was characterised by a dissociation constant (Kd) of 2.68 nM, the off-rate (koff) turned out to be 0.00761 s⁻¹ and the kon was 2.84e+06 M⁻¹ s⁻¹.

B2: Cross310×PDL1 (bispecific antibody, human IgG1, kappa, L234A L235A)
scFv: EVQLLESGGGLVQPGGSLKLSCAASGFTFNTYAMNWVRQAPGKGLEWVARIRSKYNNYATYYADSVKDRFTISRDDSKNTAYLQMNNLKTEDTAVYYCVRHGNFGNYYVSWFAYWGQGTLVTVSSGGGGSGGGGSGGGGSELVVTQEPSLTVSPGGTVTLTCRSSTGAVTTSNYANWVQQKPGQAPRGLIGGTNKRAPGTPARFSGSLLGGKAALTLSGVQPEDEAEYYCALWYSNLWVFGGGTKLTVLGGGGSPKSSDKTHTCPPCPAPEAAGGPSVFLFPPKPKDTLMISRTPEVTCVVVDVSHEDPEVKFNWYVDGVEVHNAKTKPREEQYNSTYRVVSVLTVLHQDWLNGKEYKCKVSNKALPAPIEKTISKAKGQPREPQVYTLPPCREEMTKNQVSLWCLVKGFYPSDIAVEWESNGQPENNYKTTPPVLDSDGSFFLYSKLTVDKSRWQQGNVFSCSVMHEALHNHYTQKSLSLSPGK
heavy: QVQLVQSGAEVKKPGASVKVSCKASGYSFTGYYMHWVRQAPGQGLEWIGRINPYNGATTYSQNFKDRATMTVDTSISTAYMELSRLRSDDTAVYYCVPTGMGYFLMDYWGQGTLVTVSSASTKGPSVFPLAPSSKSTSGGTAALGCLVKDYFPEPVTVSWNSGALTSGVHTFPAVLQSSGLYSLSSVVTVPSSSLGTQTYICNVNHKPSNTKVDKKVEPKSCDKTHTCPPCPAPEAAGGPSVFLFPPKPKDTLMISRTPEVTCVVVDVSHEDPEVKFNWYVDGVEVHNAKTKPREEQYNSTYRVVSVLTVLHQDWLNGKEYKCKVSNKALPAPIEKTISKAKGQPREPQVCTLPPSREEMTKNQVSLSCAVKGFYPSDIAVEWESNGQPENNYKTTPPVLDSDGSFFLVSKLTVDKSRWQQGNVFSCSVMHEALHNHYTQKSLSLSPGK
light: DIQLTQSPSFLSASVGDRVTITCKASQDVGSAVVWYQQKPGKAPKLLIYWASTRHTGVPSRFSGSGSGTEFTLTISSLQPEDFATYFCQQFTSYPTFGQGTKLEIKRTVAAPSVFIFPPSDEQLKSGTASVVCLLNNFYPREAKVQWKVDNALQSGNSQESVTEQDSKDSTYSLSSTLTLSKADYEKHKVYACEVTHQGLSSPVTKSFNRGEC
In the case of B2, the “EC50 (read off the curve)” value is ~2 µg/mL in experiment [5], ~500 ng/mL in the experiment with PDL1 protein [6], ~0.7 µg/mL in experiment [7] and ~0.7 µg/mL in experiment [8].

B3: Cross326×PDL1 (bispecific antibody, human IgG1, kappa, L234A L235A)
scFv: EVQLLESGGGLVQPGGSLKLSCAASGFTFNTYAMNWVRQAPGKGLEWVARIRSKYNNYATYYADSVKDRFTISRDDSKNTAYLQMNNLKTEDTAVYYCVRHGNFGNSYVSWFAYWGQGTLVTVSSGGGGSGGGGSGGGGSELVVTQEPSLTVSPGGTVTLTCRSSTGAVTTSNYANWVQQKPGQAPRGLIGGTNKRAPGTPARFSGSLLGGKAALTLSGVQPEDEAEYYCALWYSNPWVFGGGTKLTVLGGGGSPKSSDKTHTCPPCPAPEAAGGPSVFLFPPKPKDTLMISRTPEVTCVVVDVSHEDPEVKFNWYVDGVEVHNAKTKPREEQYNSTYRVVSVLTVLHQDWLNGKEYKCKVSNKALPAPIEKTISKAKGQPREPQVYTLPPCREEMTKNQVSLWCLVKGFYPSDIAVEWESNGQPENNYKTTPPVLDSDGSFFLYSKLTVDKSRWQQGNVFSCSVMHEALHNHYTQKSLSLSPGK
heavy: B2 heavy
light: B2 light
B3: the figures for the “EC50 (read off the curve)” value (with PDL1 protein [9]; in experiment [7]; in [8]) were ~100 ng/mL, ~0.07 µg/mL and ~0.07 µg/mL, respectively.

Values taken from patent US20260125472A1 (HEFEI TG IMMUNOPHARMA, published 2026).
